The target in data set [1] is T1, Human neutrophil elastase (Homo sapiens, UniProt P08246 P08246:30-267). In words: filter; 6 mM KCl, 2 mM MgCl2, pH 7.0. Conditions: tags: Athens Research and Technology.
The target of data set [2] is T1, Human neutrophil elastase. Description: filter; 3'-truncated. Conditions: tags: Athens Research and Technology. An excerpt:
(§1) With the use of PCR primers specific for the 3' sequence of the 2'-NH₂ modified RNA ligand, the 3'-fixed regions for four different ligands (class I ligand 12, class II ligand 14, class III ligand 9 and class IV ligand 19) were eliminated.

Data set [3] has as its target T1, Human neutrophil elastase. Description: filter; 3'-truncated; also FIG. 1. Conditions: tags: Athens Research and Technology.
Excerpt: as §1

The target in data set [4] is Thrombin (UniProt P00734;P00734 P00734:328-363,P00734:364-622). In words: filter; specificity control.
Data set [5] concerns the target T1, Human neutrophil elastase. Description: filter; no KCl in binding buffer. The note with it: tags: Athens Research and Technology; G4 predicted.
Data set [6] deals with T1, Human neutrophil elastase. Description: filter; better at pH 5, Kd rises about 3-fold over two pH units; ligand 17 legend cites SEQ ID NO:1, sequence taken from Example 7. The note with it: tags: Athens Research and Technology; G4 predicted.
Data set [7] has as its target Basic fibroblast growth factor (bFGF) (UniProt P09038 P09038:143-288). In words: filter; specificity control.
Data set [8] addresses T1, Human neutrophil elastase. In words: competition; competes with ligand 24. The note with it: tags: Athens Research and Technology; G4 predicted.

T1 sequence (P08246 30-267, one chain of several): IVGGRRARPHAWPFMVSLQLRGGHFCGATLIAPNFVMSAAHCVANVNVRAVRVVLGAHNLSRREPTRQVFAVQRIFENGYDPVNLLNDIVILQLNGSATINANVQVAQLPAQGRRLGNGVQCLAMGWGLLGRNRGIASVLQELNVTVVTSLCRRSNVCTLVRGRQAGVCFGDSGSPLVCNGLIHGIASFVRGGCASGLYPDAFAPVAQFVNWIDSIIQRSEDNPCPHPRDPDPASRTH
Basic fibroblast growth factor (bFGF), sequence (P09038 143-288, one chain of several): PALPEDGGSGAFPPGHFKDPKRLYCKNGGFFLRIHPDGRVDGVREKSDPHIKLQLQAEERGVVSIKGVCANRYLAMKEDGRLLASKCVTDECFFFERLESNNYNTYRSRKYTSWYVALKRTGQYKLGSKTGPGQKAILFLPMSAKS

B1: ligand 19 (class IV) (ssRNA)
RNA: GGGAGCUCAGAAUAAACGCUCAAUGCCCGGCAGUACUGCACGGCCUCGGGGGGGACCAGGGAGUUCGACAUGAGGCCCGGAUCCGGC
modifications: 2'-NH2 all pyrimidines
On to B1, for which, in data set [1], binding was put at a Kd of 8 nM.

B2: ligand 19 3'-truncated (ssRNA)
RNA: GGGAGCUCAGAAUAAACGCUCAAUGCCCGGCAGUACUGCACGGCCUCGGGGGGGACCAGGGAG
modifications: 2'-NH2 all pyrimidines
In the case of B2, the Kd (usually the constant that tells how readily two partners part at equilibrium) in data set [2] came out at 648 nM.

B3: ligand 14 3'-truncated (ssRNA)
RNA: GGGAGCUCAGAAUAAACGCUCAAGGCAGACAUACGCCUUGGGGGGGUUUCAGGGUAUAUGGCA
modifications: 2'-NH2 all pyrimidines
In the case of B3, binding in data set [3] was put at a Kd of 14.5 nM.

B4: ligand 28 (class IV) (ssRNA)
RNA: GGGAGCUCAGAAUAAACGCUCAAAUCGGAUAGCGCCGCGAUGGCGUCUGGGGGGGACCAGGGAUUCGACAUGAGGCCCGGAUCCGGC
modifications: 2'-NH2 all pyrimidines
Take B4: the Kd in data set [1] is 57 nM.

B5: ligand 12 3'-truncated (ssRNA)
RNA: GGGAGCUCAGAAUAAACGCUCAAGAGUAGGCUUGACGCCUGGGGGGGUAUGGCUUCGACUGCG
modifications: 2'-NH2 all pyrimidines
For the molecule B5, in data set [2], binding was characterised by a dissociation constant (Kd) of 10 nM.

B6: ligand 3 (class VI) (ssRNA)
RNA: GGGAGCUCAGAAUAAACGCUCAAUGAGGUUGAGUAGUCGUGGUAAUGGCCACGGCUGGGGGGGUCGGUUCGACAUGAGGCCCGGAUCCGGC
modifications: 2'-NH2 all pyrimidines
In data set [1], B6 registered a Kd of 28 nM.

B7: ligand 24 (class II) (ssRNA)
RNA: GGGAGCUCAGAAUAAACGCUCAAGGUAGACAUACGCCUUGGGGGGGUAUCAGGGUAUAUGGUAUUCGACAUGAGGCCCGGAUCCGGC
modifications: 2'-NH2 all pyrimidines
With B7, the Kd in data set [4] is 600 nM; in data set [1] (G4 predicted), 11 nM.

B8: ligand 14 (class II) (ssRNA)
RNA: GGGAGCUCAGAAUAAACGCUCAAGGCAGACAUACGCCUUGGGGGGGUUUCAGGGUAUAUGGCAUUCGACAUGAGGCCCGGAUCCGGC
modifications: 2'-NH2 all pyrimidines
B8: the dissociation constant (Kd) in data set [1] was found to be 17 nM.

B9: ligand 21 (class II; ligand 56 same SEQ ID) (ssRNA)
RNA: GGGAGCUCAGAAUAAACGCUCAAGGUAGACAUACGCCUUGGGGGGGUGUCAGGGUAUAUGGUAUUCGACAUGAGGCCCGGAUCCGGC
modifications: 2'-NH2 all pyrimidines
With B9, the values for the Kd in data set [5] and in data set [1] (G4 predicted) were 192 nM and 39 nM, respectively.

B10: ligand 4 (class V) (ssRNA)
RNA: GGGAGCUCAGAAUAAACGCUCAACGGAUCGGGCGGUCGUCUAGCGGGAUGGCGUGCGGGUGGAUUCGACAUGAGGCCCGGAUCCGGC
modifications: 2'-NH2 all pyrimidines
In data set [1], B10 displayed a Kd of 172 nM.

B11: DNA-17 (ssDNA)
DNA: TAGCGATACTGCGTGGGTTGGGGCGGGTAGGGCCAGCAGTCTCGTGCGGTACTTGAGCA
For the molecule B11, the binding result in data set [6] is on record as “binds”.

B12: ligand 9 3'-truncated (ssRNA)
RNA: GGGAGCUCAGAAUAAACGCUCAAGGAAUGAAUGUGAUGAACAGGUGUCGGGGUGGAUGGGUGG
modifications: 2'-NH2 all pyrimidines
For the molecule B12, binding in data set [2] was characterised by a dissociation constant (Kd) of 989 nM.

B13: ligand 44 (class I) (ssRNA)
RNA: GGGAGCUCAGAAUAAACGCUCAAGAGUAGGCUUGACGCUGGGGGGGUAUGGCUUCGACUUGCGUUCGACAUGAGGCCCGGAUCCGGC
modifications: 2'-NH2 all pyrimidines
In data set [1], B13 registered a Kd of 28 nM.

B14: ligand 46 (class VI) (ssRNA)
RNA: GGGAGCUCAGAAUAAACGCUCAAUGGAUAGCGCUGCGUGACCGCGCUGGGGGGGUUGGCAGGGUUCGACAUGAGGCCCGGAUCCGGC
modifications: 2'-NH2 all pyrimidines
Regarding B14, binding in data set [1] was put at a Kd of 13 nM.

B15: ligand 22 (class V) (ssRNA)
RNA: GGGAGCUCAGAAUAAACGCUCAAGGCCCUCUGAACCGUCUGGGCGUGGUUAGUGGGUGGCUUCGACAUGAGGCCCGGAUCCGGC
modifications: 2'-NH2 all pyrimidines
B15 yielded a Kd in data set [1] of 24 nM.

B16: ligand 26 (class III) (ssRNA)
RNA: GGGAGCUCAGAAUAAACGCUCAACGCCUUAGUCGCCAUAAUGCUGUCGGGGUGGAUAGGGUGGUUCGACAUGAGGCCCGGAUCCGGC
modifications: 2'-NH2 all pyrimidines
B16 returned a Kd in data set [1] of 38 nM.

B17: ligand 9 (class III) (ssRNA)
RNA: GGGAGCUCAGAAUAAACGCUCAAGGAAUGAAUGUGAUGAACAGGUGUCGGGGUGGAUGGGUGGUUCGACAUGAGGCCCGGAUCCGGC
modifications: 2'-NH2 all pyrimidines
In data set [7], B17 displayed a Kd of 500 nM.

B18: ligand 30 (class I; ligand 12 same SEQ ID) (ssRNA)
RNA: GGGAGCUCAGAAUAAACGCUCAAGAGUAGGCUUGACGCCUGGGGGGGUAUGGCUUCGACUGCGUUCGACAUGAGGCCCGGAUCCGGC
modifications: 2'-NH2 all pyrimidines
On to B18, for which the binding result in data set [8] is on record as “binds”.

The values are drawn from patent US5472841, “Methods for identifying nucleic acid ligands of human neutrophil elastase” (NeXstar Pharmaceuticals, Inc.).
